For assay [1], the target named is Interferon alpha-2a (human) (UniProt P01563). Description: AUC; sedimentation velocity, 50000 rpm, histidine pH 5, 0 or 140 mM NaCl, 0.8, 0.4 and 0.2 mg/mL (A280 = 1, 0.5, 0.25); monomer with a dimer in fast equilibrium with higher oligomers.
For assay [2] the target is unchanged. Nature of the assay: AUC; sedimentation velocity, 50000 rpm, histidine pH 7.5, 0 or 140 mM NaCl, 0.8, 0.4 and 0.2 mg/mL (A280 = 1, 0.5, 0.25); dimers and larger oligomers in concentration-dependent equilibrium.

The source of these data is publication PMC8713289.

Usually stoichiometry N stands for a count of units in the complex or per binding partner.

“Interferon alpha-2a (from UniProt P01563 24-188) (natural protein)”: the stoichiometry N in assay [1] was > 2 >=; in assay [2] it was 2.
